# Results from the supplement of paper PMC12042874.
# ± gives the uncertainty stated by the source.
# Assay: amyloid nucleation score (Sup35N fusion, yeast selection) (log enrichment); library NNK1; higher = more nucleation; inactive = no reads after selection
# Method in brief: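 Three technical output replicates were used for random libraries. Psi-negative yeast expressing peptides of 20 random codons fused to Sup35N were induced with 100 μM copper sulfate for 24 hours and grown 7 days at 30°C on medium lacking adenine and uracil, and input and output plasmid inserts were Illumina-sequenced, excluding sequences with under 100 input reads. The nucleation score is the DiMSum log enrichment of output over input reads, centred on the mode score of non-aggregating sequences.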
row,Substance,amyloid nucleation score
1,WNGTFNVPWSFDFRCSWVGK,0.719 ± 0.79
2,WNPIAIYEGDGMQDAFCADL,-0.033 ± 0.38
3,WNVDVGSLC,inactive
4,WPASLSSCIS,-0.047 ± 0.66
5,WPTIPAVQCRRVVCSRDTWA,-0.185 ± 0.31
6,WPWHEHEQKWDKLCMLSWKR,inactive
7,WQQWGRSPRTR,0.368 ± 0.46
8,WQSFGVSGRLPYRQWSD,inactive
9,WRMCSHCVLPHSMFSDSNTV,-1.03 ± 1.3
10,WRMRYKC,-0.338 ± 1.2
11,WRVNVEVKYFAEKTVQECWV,0.817 ± 0.23
12,WSCKVMRVYRP,0.295 ± 0.4
13,WSKDNTIVEISYGTSGLVQL,0.39 ± 0.26
14,WSLWARWSFRHRCQRMHLLL,0.174 ± 0.4
15,WSMMCKWMNVERFIYMLKSC,0.394 ± 1.1
16,WSTCLCGYCCVI,1.31 ± 0.2
17,WSTNNCCYA,-1.38 ± 2.1
18,WTNSRHC,0.636 ± 0.38
19,WTTSVSL,-0.346 ± 0.84
20,WVCFIFIIFETVS,-0.207 ± 0.47
21,WVFVNYWSGSKNQ,2.96 ± 0.14
22,WVIVRYRNFCVCGRPSKDIG,0.263 ± 0.32

row,Substance,amyloid nucleation score
1,WVKCRDWYSILF,5.19 ± 0.089
2,WVLNG,-0.514 ± 0.34
3,WVRNSLCRQIRRSANHQSGA,inactive
4,WVRSNKGQAGSG,0.886 ± 1
5,WVRYFPCRIII,-1.27 ± 0.79
6,WVSPLVYDWYLT,-0.929 ± 2.7
7,WVVCVIDEGSSTFFINI,-0.556 ± 1.4
8,WVVISMSVRHVLACNLLPIR,-0.013 ± 0.76
9,WVWSLRLLGFNNLMDKATGF,-0.312 ± 0.24
10,WWALIHRPMVRVLGVQRVD,-0.297 ± 0.88
11,WWATWRLLCIDNTACWADRW,-0.177 ± 0.53
12,WWHSL,2.01 ± 0.62
13,WYKMSRRGQ,0.857 ± 1
14,WYRVCV,-0.603 ± 0.65
15,WYWELGLALKRWRYAANFGS,-0.19 ± 0.96
16,WYYDCWIYL,1.25 ± 0.46
17,WYYYTVSSEGSNSAGTKLRG,0.376 ± 0.38
18,YAFDMRMENTQVRYHVPLII,0.292 ± 0.73
19,YAKHFPVLRTCLLNSVWGQG,1.33 ± 0.57
20,YASGLNSHDELVFYFYNRER,inactive
21,YCDNDSYH,1.42 ± 0.44
22,YCDSWSVSFLICRSPFQNYM,-1.12 ± 0.56

row,Substance,amyloid nucleation score
1,YCGMKVDVVIVGRHVFRISF,0.512 ± 0.41
2,YCHCRFFDNLGCECLLR,-0.368 ± 1.9
3,YCQVYGSVWNFKRYYLATWS,-0.128 ± 0.55
4,YCVIHSIRLGRIHLDCFWDF,inactive
5,YDPPNCSAKSNQAGLKCTGA,2.22 ± 0.19
6,YDTTTHMRISMVGSSQPVCL,-0.327 ± 0.3
7,YDWAVSAS,-0.364 ± 0.61
8,YEGYGPCWRKLYS,0.15 ± 0.36
9,YELRFMRVEQGSQYREVS,-0.159 ± 0.37
10,YEYQEKFSFYIEVLGKDSLS,-0.864 ± 0.41
11,YFAHGSWRLSCFLVYWLMRP,inactive
12,YFCAMGNHVLVS,-0.389 ± 0.49
13,YFCFFSRMFTVEF,2.12 ± 0.64
14,YFDVL,-0.537 ± 0.48
15,YFFCVFI,8.469 ± 0.072
16,YFGKYLIWWFMSKLAV,-0.388 ± 0.29
17,YFHIESGLYYTWFMLYGPGR,0.154 ± 0.61
18,YFIDLISWL,0.198 ± 0.56
19,YFLGQMLISEGIMSVAFCVR,5.13 ± 0.073
20,YFRRCFDRCVMSRLRPI,-0.793 ± 0.61
